Assay results reported in the DeepSol protein solubility set.

Experiment: soluble on expression in E. coli; label from the status in PepcDB or PDB records
For “MGSDKIHHHHHHMKNRKTPMKEQSPESRRRNFEEVALGYTLEEALEEAQRCLQCPTHPCVSGCPVEIDIPGFIRKLRDGKLEESYRILKSYNNLPAVCGRVCPQEVQCESRCVVGKMKDSEPVAIGRLERFVADWAAENLEEDVKPLAGSKKEKVAVVGSGPAGLTAAADLAKMGYHVDIFEAFHKPGGVLVYGIPEFRLPKRIVEREVSYIRKLGVNFHLNTVVGKTVKVKELLSEYDAVFIGTGAGTPKFMGIPGTNLNGVYSANEFLTRVNLMKAYLFPEYDTPIRVGKKVAVIGAGNTAMDAARSALRLGAEKVYIVYRRTEREMPARREEYHHALEEGIEFLWLTLPIRYIGDANGNVEAMECVRMELKEADGSGRPRPVPIEGSNFVLEVDMVIEAIGQGPNRVLLSEFPGLELNERGYIKADEDTGATSVKGVFAGGDIVTGAATVIKAMGAGKKAAQFIHSYLTGEWNPWQK”, the “soluble on expression in E. coli” value was “not soluble”. For “MGSDKIHHHHHHMKNTTLSSRKHRSLETKKKLLHSGYIVFINNGFQKTTITQIIKHAETGYGTAYVYFKNKDDLLTVLMEDVMNQFYDIAERSFSPQTKEEARNMIQNQVRAFLQLAEKERAILQVVEEAIGLSKEIRQKWDEIRERFINSITQDITYSQENGLAHPELNKETVARAWFAMNEIFLWTIVKNDKKLELEEIVHTLTEMYTTGLYK”, the “soluble on expression in E. coli” value was “not soluble”. For “MGSDKIHHHHHHMKPEAYPHPVKVVELVETHISWVLLTGSYAYKLKKAVHLDFVDATTLKQRLHFCQEELRLNRRLAPDLYLGVTRILESVDGAKVLDENFELNDPSTKGVVDVAVKMRQFPVSRLLSVYLSDGVLKTESLKRLAFELAGFHLSVKTASADGDFGGFDAVINPVHANLRVLDQLTLTEPLELWLEEHRAWIKSIQPELAFRFKQRLNAGAIRECHGDLHVGNIHLNNDESLEVFDAIDFNPSLRWIDPISEMAFLVMDFEVHDHQGDAMVILNEWLEHTGDYKALDLWPWYSAYRALVRAKVSGLQWQQLCSQSQHHSVDQQHLQRLLKDLNLYIQRAREVQQTKSAGIVLMHGLSGSGKSFLSEQLYQQLPAVRLRSDIERQRAFGRRPLHKLLGFEKGSMTSVGIKPLFQGDPYRPEVTQWLFDQCLPALTQSCLSSGYTTIVDATFLRERERQRMFVLARQQGCPIAIVACECSDFTAQERIATRMGIGTDPSEADLSVRELQKAWIEPLTTDEQDLTVRFTEKTPISIGLERLRVLLNP”, the “soluble on expression in E. coli” value was “not soluble”. For “MGSDKIHHHHHHMKQIPLAERMRPKTLADYVGQQHLIGSGAVLRQMIEQGQTPSMILWGPPGVGKTTLAEIIAHEVDAPFYTLSAVSSGVKEVREVIADIESNRGNLFDKGGRAILFIDEIHRFSKSQQDSLLAAVERGIVTLIGATTENPSFEVIRPLLSRCQVYVLKPQSDEDLLLLAHRAIDRDELLAAKHPVLEETEALLLYAGGDARKLLNILDLLATSEVEDRLVITNEKIRQRLQENPAAFDKGGELHYDIASAFIKSIRGSDPDAAIYWLARLIDGGEEPSFIARRLIISASEDIGLANPNAMLIAMACAEALDRIGWPEGRIPLAEATIYLATSEKSNSAYLAIDSALEYVRQSGNLPVPLHLRNAPTRLMADLDYGKGYKYSHDFPEHFVSQQYLPDKAANTSFWTPQMHTVHEAKLGERMKRWWKREKSQKDTAE”, the “soluble on expression in E. coli” value was “not soluble”. In the case of “MGSDKIHHHHHHMKQLFDNVSAMCSKLTTKKYSTSFSLGIHFLHKKLHDPVYAIYGFVRFADEIVDSFHGYDKKRLMAQFRRDTAFALQDKISLNPILNSFQHVVHTYNIEWELIDTFLKSMEMDLDQSAHNEQSYKEYIIGSAEVVGLMCLRVFVKGDVDMYEKQKPHAMSLGAAFQKVNFLRDAKEDFDSLGRTYFPDVSMEKFDRHIKQNIESDIEKDFQHALIGIKQLPAESRLGVYLAYIYYKNLFHKIKSIPPERMLKERIRIPNLNKFALLFQCYFRNQFNIL”, the “soluble on expression in E. coli” value is reported as “not soluble”. In the case of “MGSDKIHHHHHHMKRKTKLDKKSKWVLDMKFGVSSLVFLPESLTSSMEKIAEHNFDAWEIVCEGTHYLSPKNIKYLMELRDRYEVEIVVHAPFSDLNPASMNERVRKLTVECIRDAIEGAFELDSEVVVVHPGYIPELWSNYVSEILDNNFSTLSEIVEIAEDYGIKIGLENMPNFRGVLGITPESLLEIVKDIDSKNLGITFDIGHANTAGNPAEFVEKLQNIGIGIIHVHAHDNNGYDDEHLKIGEGNINFIEVLEKLKEIGYDGVISIENKNIRDAVKSKEILKEYLEIVNEKVAEKEKIEE”, the “soluble on expression in E. coli” value is reported as “not soluble”. With “MGSDKIHHHHHHMKSLGRHLVAEFYECDREVLDNVQLIEQEMKQAAYESGATIVTSTFHRFLPYGVSGVVVISESHLTIHTWPEYGYAAIDLFTCGEDVDPWKAFEHLKKALKAKRVHVVEHERGRYDEIGIPEDSPHKAAV” the “soluble on expression in E. coli” value was “soluble”. For “MGSDKIHHHHHHMKTEIVEIESECLKDNFLKDDWKRQILVYRPDDAEGGLPLFIELAGTNWRPRTHNKFSLIIEKLFSSGLKAVVLNPNFSTRYNMNQYLNSPAVGSYEDFIVKELIPYFKDKYGTDHTALFGKSSGGFGSYTLAARHPDIIDGFADHFGDSCFFYLYADDMAAAFRYIQRHGKSESVKMLTSHMPSDDEMKVLNVIGSSAFYSPDMNDVNGFDLPFDEDTGELIEDVWQRWVQFDPAKNVLKYSGALKKMKAIYLDVGTNDEYKLYIGTRALHKKLGLANIDHYYEEFNGGHFGNSERYLYSLPFLYRKLNDTA”, the “soluble on expression in E. coli” value was “not soluble”. For “MGSDKIHHHHHHMKTERILGALYGQALGDAMGMPSELWPRSRVKAHFGWIDRFLPGPKENNAACYFNRAEFTDDTSMALCLADALLEREGKIDPDLIGRNILDWALRFDAFNKNVLGPTSKIALNAIRDGKPVAELENNGVTNGAAMRVSPLGCLLPARDVDSFIDDVALASSPTHKSDLAVAGAVVIAWAISRAIDGESWSAIVDSLPSIARHAQQKRITTFSASLAARLEIALKIVRNADGTESASEQLYQVVGAGTSTIESVPCAIALVELAQTDPNRCAVLCANLGGDTDTIGAMATAICGALHGVNAIDPALKAELDAVNQLDFNRYATALAKYRQQREAV”, the “soluble on expression in E. coli” value was “not soluble”. For “MGSDKIHHHHHHMKTLAQNIQEKLKASGLTQKELAERANISQVMVHKLISGKAKESSKLVAIAGVLGCTAEELMYGLEKHVPTSNAEWAGPMETWDSNTPLNDDEVEIPFYMEVELAAGHGIAEASEYHGPKLRFAKSTLRKSSVDPTNAACVRVSGNSMEPVLPSGSTVGVDTSQTDVIDGKMYAINHDGMLRVKTLYKLPGGGLRLRSYNIDEWPDERYEGEAIKQIKIIGKVFWYSVLM”, the “soluble on expression in E. coli” value was “not soluble”. In the case of “MGSDKIHHHHHHMKVCILGATGRVGSNIIKLALKDSVEVTALARDSSRVEINHERLRVIEGNVLNENDIKKAIEGSDIVISALGTDQNGTLAKSMPQIIKKMEEEGVRKIITIGTAGILQARTNLNLYRFQSTESKRKSTTAAEEHLAAYKILSSSNLCWTVVCPTHLIDGDVTGIYRTEKDVLPEGGAKITVGDTAQFTWNLCSKNKYENSRVGISY”, the “soluble on expression in E. coli” value is reported as “not soluble”. In the case of “MGSDKIHHHHHHMKVDWDHLQFFLVLARTKTLTNAARIIGVEHSTVARRIQALELALGTTLFKREATGYELTLEGMALVPRVEQMEQAFLQIEKPHQPLQGRVRIGTPEGFGTAFLARLLAEFSIQYPLLTIDLIPVPKMIKLSHREADIVVSIERPTSGPYIITRLSDYCLKIYGSQNYLAQNPPIRRLEDLTQHRFVNYIDDLVYSPELYCLERLPLKLNANFRSSSILAQQIAVSAGAGLAILPKFLADDKPELEEVLEQQVRFTHTFWMLTFVDLQHEPRIKLVWDYLRKQADKYQHLLVD”, the “soluble on expression in E. coli” value is reported as “not soluble”. For “MGSDKIHHHHHHMKVDYHIHLEEGPYSIGWLAKINESLQHYEPLKEEKHSMEWLVKIQERLQRRVNEGPFTTKWIDLYLEEALRKGIKEVGIVDHLYRFYEAKEYYEKYVDISDSGLGRLQKEWLDQVRVASLHDFTKAIEEAKERWSKRGVTLKLGIEADYFIGGEQQLQSLLALGDFDYVIGSVHFLNGWGFDNPDTKEYFKEHDLYALYDTFFKTVECAVRSELFDIIAHLDNIKVFNYRLDENEQISYYKKIARALVETNTATEINAGLYYRYPVREMCPSPLYLQVLAKHEVPITLSSDAHYPNDLGKYVEENIKTLRNHDIAHLATFTKRVRTMRLLEEVTISK”, the “soluble on expression in E. coli” value was “not soluble”. In the case of “MGSDKIHHHHHHMKVIKFGGSSLASGIQLNKVFQLVAEDSERKIVVVSAPGKRFKDDTKVTDLLIDCAAKALLGEDTSELFEAVIARYAGIALDTGMDDAIITQIRADLQKTISSDKSDPDKFLDRMKASGEDNNAKLIAAYFKFKGLNANYVNPKDAGLFVTDEHASAQVLPESYDRLFALREREGIIVFPGFFGYTKDGEISTFSRSGSDITGAIVANGAQAELYENFTDVDAVYAVNPAIVKNPKKVLELTYREMRELSYAGFSVFHDEALIPAFHAGIPVHIKNTNNPDSCGTRVVHERENNNGPVVGIASDDGFCSIYISKYLMNREIGFGRKVLQILEDAGLNYEHMPSGIDDLTIIIRENQFGEDTERTIMTRLKEELNADQVIMQHGISLIMVVGEAMRHNVGITSRASKALSDAKVNIEMINQGSSEVSIMFGVKEEQENTAVRALYNEFFSEVLV”, the “soluble on expression in E. coli” value is reported as “not soluble”. For “MGSDKIHHHHHHMKVLVVDDDKLARKGLISIMDWKKYGFEVVGDVQNGRKALEFLKDNEVDIVFTDIDMPEIDGIELMKMCKKEYPEVKFVVFSMYEDFRYAQSALRLGALDYISKISFEGDECDRILELVERKYKENHSQKETRNEDSELIKRLEKAWMNTRWIFNDSEFNRLYELTRGVELRTAERVFIKSFHSLQKLTGEELEFPSLSSVDSMLEWVKQWKENLYQTCLQTDKTKDIYMFARVILYTDEHIEENLKSEEAAAQIGMSRSYFSTRFKEMTGDTFHNYVISRKMYAAAQKMAKGTENITQIASNLGYDNFYYFTKVFSKEYGCMPTEYVGRIKKCSI”, the “soluble on expression in E. coli” value was “not soluble”. For “MGSDKIHHHHHHMKVSEFDYELPPELIAQEPVEPRDASRLMVLHRKTQRIEHRIFREIIEYLEPGDLLVLNVSKVIPARLYARKKTGASIEILLIERLEEGIWKCLVRPGQKVKKGTELVIDEDLSAVCLGRGEDGTRILKFQPQDDRLIFEKGRTPLPPYIKNEVPLERYQTVYAKEEGSVAAPTAGLHFTPELIEKLKKKGVQFAEVVLHVGIGTFRPVKVEEVEKHKMHEEFYQVPKETVRKLRETRERGNRIVAVGTTTVRTLETIARLPEQEEYVGKTDLFIYPPFEFKLVDALVTNFHLPRSTLLMLVAAFAGKDFVMEAYREAVKRRYRFFSFGDAMLIL”, the “soluble on expression in E. coli” value was “soluble”. For “MGSDKIHHHHHHMKVTLIGIDLAKNVLQVCGVNQVGKTLFNRTVKRTQLLKTLVQYPDAVIAMEACSGSNYWGRELLSRGFEVKLIPPQHVKPFVKGNKNDRNDAFAICEAAMRPNIIFVKPRTLAQVDIIISHRIRERRIRVRTALTNQIRGLLSEYGIVIPKGRDPLNLALPELLEDADNSLTTTARRYIRELLDELYAINASIKALEKEIRLQARNHEDTKRLTAIRGVAEIIATASVSFAGDGSGYQNGRHFSANLGLVPKEFSSGGKQKLGAITKRGNSYLRRQLIQGAWSVIRYAKNNDDRLSVWARKVIERRGKQKAAVAVANKLARIIWAMLYYKTEYRPS”, the “soluble on expression in E. coli” value was “not soluble”.
